Measured values reported in patent publication US20180155451A1 (published 2018).

biological target: T1, FcγRIa extracellular domain with C-terminal His tag (human, UniProt P12314 16-292); assay: SPR Biacore, relative FcγRIa binding vs GpH7-B3/GpL16-k0
T1 construct: extracellular domain; also called FcgRI; CD64; not shown: His tag at the C terminus
T1 sequence (P12314 16-292): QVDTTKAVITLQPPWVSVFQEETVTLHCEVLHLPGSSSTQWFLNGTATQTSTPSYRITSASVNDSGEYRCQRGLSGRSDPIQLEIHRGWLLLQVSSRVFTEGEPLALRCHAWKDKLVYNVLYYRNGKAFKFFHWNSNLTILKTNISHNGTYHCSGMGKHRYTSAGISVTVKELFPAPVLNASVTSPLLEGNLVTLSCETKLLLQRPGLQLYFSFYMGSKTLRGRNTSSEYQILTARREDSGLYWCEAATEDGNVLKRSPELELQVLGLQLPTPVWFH

Binder | Ho/Con_1a
GpH7-B3 variant S298_11K/GpL16-k0 (antibody, human IgG1, kappa, mutation in both H chains; also called Ho Ab S298_11K; S298K) heavy: not shown light: DIVMTQSPLSLPVTPGEPASISCQASESLVHSNRNTYLHWYLQKPGQSPQLLIYKVSNRFSGVPDRFSGSGSGTDFTLKISRVEAEDVGVYYCSQNTHVPPTFGQGTKVEIERTVAAPSVFIFPPSDEQLKSGTASVVCLLNNFYPREAKVQWKVDNALQSGNSQESVTEQDSKDSTYSLSSTLTLSKADYEKHKVYACEVTHQGLSSPVTKSFNRGEC | 90.4 % of HoCon Ab (=100)
GpH7-B3 variant S239_18N/GpL16-k0 (antibody, human IgG1, kappa, mutation in both H chains; also called Ho Ab S239_18N; S239N) heavy: not shown light: DIVMTQSPLSLPVTPGEPASISCQASESLVHSNRNTYLHWYLQKPGQSPQLLIYKVSNRFSGVPDRFSGSGSGTDFTLKISRVEAEDVGVYYCSQNTHVPPTFGQGTKVEIERTVAAPSVFIFPPSDEQLKSGTASVVCLLNNFYPREAKVQWKVDNALQSGNSQESVTEQDSKDSTYSLSSTLTLSKADYEKHKVYACEVTHQGLSSPVTKSFNRGEC | 97.9 % of HoCon Ab (=100)
GpH7-B3 variant S239_14T/GpL16-k0 (antibody, human IgG1, kappa, mutation in both H chains; also called Ho Ab S239_14T; S239T) heavy: not shown light: DIVMTQSPLSLPVTPGEPASISCQASESLVHSNRNTYLHWYLQKPGQSPQLLIYKVSNRFSGVPDRFSGSGSGTDFTLKISRVEAEDVGVYYCSQNTHVPPTFGQGTKVEIERTVAAPSVFIFPPSDEQLKSGTASVVCLLNNFYPREAKVQWKVDNALQSGNSQESVTEQDSKDSTYSLSSTLTLSKADYEKHKVYACEVTHQGLSSPVTKSFNRGEC | 101 % of HoCon Ab (=100)
GpH7-B3 variant S239_09D/GpL16-k0 (antibody, human IgG1, kappa, mutation in both H chains; also called Ho Ab S239_09D; S239D) heavy: not shown light: DIVMTQSPLSLPVTPGEPASISCQASESLVHSNRNTYLHWYLQKPGQSPQLLIYKVSNRFSGVPDRFSGSGSGTDFTLKISRVEAEDVGVYYCSQNTHVPPTFGQGTKVEIERTVAAPSVFIFPPSDEQLKSGTASVVCLLNNFYPREAKVQWKVDNALQSGNSQESVTEQDSKDSTYSLSSTLTLSKADYEKHKVYACEVTHQGLSSPVTKSFNRGEC | 101 % of HoCon Ab (=100)
GpH7-B3 variant S239_19Q/GpL16-k0 (antibody, human IgG1, kappa, mutation in both H chains; also called Ho Ab S239_19Q; S239Q) heavy: not shown light: DIVMTQSPLSLPVTPGEPASISCQASESLVHSNRNTYLHWYLQKPGQSPQLLIYKVSNRFSGVPDRFSGSGSGTDFTLKISRVEAEDVGVYYCSQNTHVPPTFGQGTKVEIERTVAAPSVFIFPPSDEQLKSGTASVVCLLNNFYPREAKVQWKVDNALQSGNSQESVTEQDSKDSTYSLSSTLTLSKADYEKHKVYACEVTHQGLSSPVTKSFNRGEC | 93.4 % of HoCon Ab (=100)

biological target: T2, FcγRIa extracellular domain with C-terminal His tag (human, UniProt P12314 16-292); assay: SPR Biacore, antibody captured, FcγRIa analyte; vs GpH7-A5/GpH7-B3/GpL16-k0 = 100
T2 construct: extracellular domain; Expressed in FreeStyle293 cells; analyte in Biacore; also called FcgRI; FcgRIa
T2 sequence (P12314 16-292): as the sequence (P12314 16-292) above

Binder | He/Con_1a
GpH7-A5/GpH7-B3 variant S324_02A/GpL16-k0 (He Ab) (antibody, human IgG1, kappa, He Ab: alteration only in the GpH7-B3 chain) heavy 1: not shown heavy 2: not shown light: DIVMTQSPLSLPVTPGEPASISCQASESLVHSNRNTYLHWYLQKPGQSPQLLIYKVSNRFSGVPDRFSGSGSGTDFTLKISRVEAEDVGVYYCSQNTHVPPTFGQGTKVEIERTVAAPSVFIFPPSDEQLKSGTASVVCLLNNFYPREAKVQWKVDNALQSGNSQESVTEQDSKDSTYSLSSTLTLSKADYEKHKVYACEVTHQGLSSPVTKSFNRGEC | 103 relative (control = 100)
GpH7-A5/GpH7-B3 variant S298_18N/GpL16-k0 (He Ab) (antibody, human IgG1, kappa, He Ab: alteration only in the GpH7-B3 chain) heavy 1: not shown heavy 2: not shown light: DIVMTQSPLSLPVTPGEPASISCQASESLVHSNRNTYLHWYLQKPGQSPQLLIYKVSNRFSGVPDRFSGSGSGTDFTLKISRVEAEDVGVYYCSQNTHVPPTFGQGTKVEIERTVAAPSVFIFPPSDEQLKSGTASVVCLLNNFYPREAKVQWKVDNALQSGNSQESVTEQDSKDSTYSLSSTLTLSKADYEKHKVYACEVTHQGLSSPVTKSFNRGEC | 108 relative (control = 100)
GpH7-A5/GpH7-B3 variant S298_08L/GpL16-k0 (He Ab) (antibody, human IgG1, kappa, He Ab: alteration only in the GpH7-B3 chain) heavy 1: not shown heavy 2: not shown light: DIVMTQSPLSLPVTPGEPASISCQASESLVHSNRNTYLHWYLQKPGQSPQLLIYKVSNRFSGVPDRFSGSGSGTDFTLKISRVEAEDVGVYYCSQNTHVPPTFGQGTKVEIERTVAAPSVFIFPPSDEQLKSGTASVVCLLNNFYPREAKVQWKVDNALQSGNSQESVTEQDSKDSTYSLSSTLTLSKADYEKHKVYACEVTHQGLSSPVTKSFNRGEC | 107 relative (control = 100)
GpH7-A5/GpH7-B3 variant S337_02A/GpL16-k0 (He Ab) (antibody, human IgG1, kappa, He Ab: alteration only in the GpH7-B3 chain) heavy 1: not shown heavy 2: not shown light: DIVMTQSPLSLPVTPGEPASISCQASESLVHSNRNTYLHWYLQKPGQSPQLLIYKVSNRFSGVPDRFSGSGSGTDFTLKISRVEAEDVGVYYCSQNTHVPPTFGQGTKVEIERTVAAPSVFIFPPSDEQLKSGTASVVCLLNNFYPREAKVQWKVDNALQSGNSQESVTEQDSKDSTYSLSSTLTLSKADYEKHKVYACEVTHQGLSSPVTKSFNRGEC | 106 relative (control = 100)
GpH7-A5/GpH7-B3 variant S324_20W/GpL16-k0 (He Ab) (antibody, human IgG1, kappa, He Ab: alteration only in the GpH7-B3 chain) heavy 1: not shown heavy 2: not shown light: DIVMTQSPLSLPVTPGEPASISCQASESLVHSNRNTYLHWYLQKPGQSPQLLIYKVSNRFSGVPDRFSGSGSGTDFTLKISRVEAEDVGVYYCSQNTHVPPTFGQGTKVEIERTVAAPSVFIFPPSDEQLKSGTASVVCLLNNFYPREAKVQWKVDNALQSGNSQESVTEQDSKDSTYSLSSTLTLSKADYEKHKVYACEVTHQGLSSPVTKSFNRGEC | 114 relative (control = 100)
GpH7-A5/GpH7-B3 variant S324_14T/GpL16-k0 (He Ab) (antibody, human IgG1, kappa, He Ab: alteration only in the GpH7-B3 chain) heavy 1: not shown heavy 2: not shown light: DIVMTQSPLSLPVTPGEPASISCQASESLVHSNRNTYLHWYLQKPGQSPQLLIYKVSNRFSGVPDRFSGSGSGTDFTLKISRVEAEDVGVYYCSQNTHVPPTFGQGTKVEIERTVAAPSVFIFPPSDEQLKSGTASVVCLLNNFYPREAKVQWKVDNALQSGNSQESVTEQDSKDSTYSLSSTLTLSKADYEKHKVYACEVTHQGLSSPVTKSFNRGEC | 121 relative (control = 100)
GpH7-A5/GpH7-B3 variant S324_03V/GpL16-k0 (He Ab) (antibody, human IgG1, kappa, He Ab: alteration only in the GpH7-B3 chain) heavy 1: not shown heavy 2: not shown light: DIVMTQSPLSLPVTPGEPASISCQASESLVHSNRNTYLHWYLQKPGQSPQLLIYKVSNRFSGVPDRFSGSGSGTDFTLKISRVEAEDVGVYYCSQNTHVPPTFGQGTKVEIERTVAAPSVFIFPPSDEQLKSGTASVVCLLNNFYPREAKVQWKVDNALQSGNSQESVTEQDSKDSTYSLSSTLTLSKADYEKHKVYACEVTHQGLSSPVTKSFNRGEC | 104 relative (control = 100)
GpH7-A5/GpH7-B3 variant S298_15Y/GpL16-k0 (He Ab) (antibody, human IgG1, kappa, He Ab: alteration only in the GpH7-B3 chain) heavy 1: not shown heavy 2: not shown light: DIVMTQSPLSLPVTPGEPASISCQASESLVHSNRNTYLHWYLQKPGQSPQLLIYKVSNRFSGVPDRFSGSGSGTDFTLKISRVEAEDVGVYYCSQNTHVPPTFGQGTKVEIERTVAAPSVFIFPPSDEQLKSGTASVVCLLNNFYPREAKVQWKVDNALQSGNSQESVTEQDSKDSTYSLSSTLTLSKADYEKHKVYACEVTHQGLSSPVTKSFNRGEC | 107 relative (control = 100)
GpH7-A5/GpH7-B3 variant S298_10E/GpL16-k0 (He Ab) (antibody, human IgG1, kappa, He Ab: alteration only in the GpH7-B3 chain) heavy 1: not shown heavy 2: not shown light: DIVMTQSPLSLPVTPGEPASISCQASESLVHSNRNTYLHWYLQKPGQSPQLLIYKVSNRFSGVPDRFSGSGSGTDFTLKISRVEAEDVGVYYCSQNTHVPPTFGQGTKVEIERTVAAPSVFIFPPSDEQLKSGTASVVCLLNNFYPREAKVQWKVDNALQSGNSQESVTEQDSKDSTYSLSSTLTLSKADYEKHKVYACEVTHQGLSSPVTKSFNRGEC | 108 relative (control = 100)
GpH7-A5/GpH7-B3 variant S324_08L/GpL16-k0 (He Ab) (antibody, human IgG1, kappa, He Ab: alteration only in the GpH7-B3 chain) heavy 1: not shown heavy 2: not shown light: DIVMTQSPLSLPVTPGEPASISCQASESLVHSNRNTYLHWYLQKPGQSPQLLIYKVSNRFSGVPDRFSGSGSGTDFTLKISRVEAEDVGVYYCSQNTHVPPTFGQGTKVEIERTVAAPSVFIFPPSDEQLKSGTASVVCLLNNFYPREAKVQWKVDNALQSGNSQESVTEQDSKDSTYSLSSTLTLSKADYEKHKVYACEVTHQGLSSPVTKSFNRGEC | 103 relative (control = 100)
GpH7-A5/GpH7-B3 variant S298_16H/GpL16-k0 (He Ab) (antibody, human IgG1, kappa, He Ab: alteration only in the GpH7-B3 chain) heavy 1: not shown heavy 2: not shown light: DIVMTQSPLSLPVTPGEPASISCQASESLVHSNRNTYLHWYLQKPGQSPQLLIYKVSNRFSGVPDRFSGSGSGTDFTLKISRVEAEDVGVYYCSQNTHVPPTFGQGTKVEIERTVAAPSVFIFPPSDEQLKSGTASVVCLLNNFYPREAKVQWKVDNALQSGNSQESVTEQDSKDSTYSLSSTLTLSKADYEKHKVYACEVTHQGLSSPVTKSFNRGEC | 109 relative (control = 100)
GpH7-A5/GpH7-B3 variant S324_19Q/GpL16-k0 (He Ab) (antibody, human IgG1, kappa, He Ab: alteration only in the GpH7-B3 chain) heavy 1: not shown heavy 2: not shown light: DIVMTQSPLSLPVTPGEPASISCQASESLVHSNRNTYLHWYLQKPGQSPQLLIYKVSNRFSGVPDRFSGSGSGTDFTLKISRVEAEDVGVYYCSQNTHVPPTFGQGTKVEIERTVAAPSVFIFPPSDEQLKSGTASVVCLLNNFYPREAKVQWKVDNALQSGNSQESVTEQDSKDSTYSLSSTLTLSKADYEKHKVYACEVTHQGLSSPVTKSFNRGEC | 112 relative (control = 100)
GpH7-A5/GpH7-B3 variant S337_03V/GpL16-k0 (He Ab) (antibody, human IgG1, kappa, He Ab: alteration only in the GpH7-B3 chain) heavy 1: not shown heavy 2: not shown light: DIVMTQSPLSLPVTPGEPASISCQASESLVHSNRNTYLHWYLQKPGQSPQLLIYKVSNRFSGVPDRFSGSGSGTDFTLKISRVEAEDVGVYYCSQNTHVPPTFGQGTKVEIERTVAAPSVFIFPPSDEQLKSGTASVVCLLNNFYPREAKVQWKVDNALQSGNSQESVTEQDSKDSTYSLSSTLTLSKADYEKHKVYACEVTHQGLSSPVTKSFNRGEC | 107 relative (control = 100)
GpH7-A5/GpH7-B3 variant S298_19Q/GpL16-k0 (He Ab) (antibody, human IgG1, kappa, He Ab: alteration only in the GpH7-B3 chain) heavy 1: not shown heavy 2: not shown light: DIVMTQSPLSLPVTPGEPASISCQASESLVHSNRNTYLHWYLQKPGQSPQLLIYKVSNRFSGVPDRFSGSGSGTDFTLKISRVEAEDVGVYYCSQNTHVPPTFGQGTKVEIERTVAAPSVFIFPPSDEQLKSGTASVVCLLNNFYPREAKVQWKVDNALQSGNSQESVTEQDSKDSTYSLSSTLTLSKADYEKHKVYACEVTHQGLSSPVTKSFNRGEC | 109 relative (control = 100)
GpH7-A5/GpH7-B3 variant S337_01G/GpL16-k0 (He Ab) (antibody, human IgG1, kappa, He Ab: alteration only in the GpH7-B3 chain) heavy 1: not shown heavy 2: not shown light: DIVMTQSPLSLPVTPGEPASISCQASESLVHSNRNTYLHWYLQKPGQSPQLLIYKVSNRFSGVPDRFSGSGSGTDFTLKISRVEAEDVGVYYCSQNTHVPPTFGQGTKVEIERTVAAPSVFIFPPSDEQLKSGTASVVCLLNNFYPREAKVQWKVDNALQSGNSQESVTEQDSKDSTYSLSSTLTLSKADYEKHKVYACEVTHQGLSSPVTKSFNRGEC | 107 relative (control = 100)
GpH7-A5/GpH7-B3 variant S298_14T/GpL16-k0 (He Ab) (antibody, human IgG1, kappa, He Ab: alteration only in the GpH7-B3 chain) heavy 1: not shown heavy 2: not shown light: DIVMTQSPLSLPVTPGEPASISCQASESLVHSNRNTYLHWYLQKPGQSPQLLIYKVSNRFSGVPDRFSGSGSGTDFTLKISRVEAEDVGVYYCSQNTHVPPTFGQGTKVEIERTVAAPSVFIFPPSDEQLKSGTASVVCLLNNFYPREAKVQWKVDNALQSGNSQESVTEQDSKDSTYSLSSTLTLSKADYEKHKVYACEVTHQGLSSPVTKSFNRGEC | 107 relative (control = 100)
